This test addresses human CD40 antigen on the surface of human B cells (human) (UniProt P25942). As to the kind of experiment: cell-based or functional assay.
Sequence of UniProt P25942 (P25942 21-277): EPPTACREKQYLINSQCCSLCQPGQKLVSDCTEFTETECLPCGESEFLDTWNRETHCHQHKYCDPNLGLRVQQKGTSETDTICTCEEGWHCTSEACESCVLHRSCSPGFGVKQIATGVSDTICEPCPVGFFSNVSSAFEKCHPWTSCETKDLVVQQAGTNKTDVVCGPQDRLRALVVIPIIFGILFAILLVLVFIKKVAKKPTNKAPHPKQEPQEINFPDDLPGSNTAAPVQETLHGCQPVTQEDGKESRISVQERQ

The substance anti-CD40 monoclonal antibody 5D12 yielded a 50% of maximal inhibition of human T-cell induced immunoglobulin production by human B cells of 30 ng/mL, a concentration giving complete inhibition of EL4B5-induced human B-cell proliferation of 10 ng/mL, a half-maximal inhibition of EL4B5-induced human B-cell proliferation of 1 ng/mL and a percentage of inhibition of immunoglobulin production by human B cells of 40 to 70%.

The values are drawn from patent publication US6899879.
